Data as given in patent US20240352438A1, “MEANS AND METHODS FOR DETOXIFYING OCHRATOXIN A” (DSM Austria GmbH, priority 2021, published 2024).
Changes are numbered by the printed parent chain.

B1: 51 (protein)
chain: MTTRTRILTAFLSLLAANACAADAAPAAPHTVVLRAARMFDGASGKLVDHPQLTIVGNKIVRIAQGDKAEVPAGAEVVDLGDATLLPGFIDAHVHLSGQSSDNWYGDFFDNMMRFPAEQALYGAYYARITLEAGFTSVRDVGSTDWVALGLRNAIDAGKVPGPRMLVSNYGVGSTGGHADQDPIPPHKLPLAGPLQGVCNGPEECRAAVRYQIKYGANVIKFMPSGGVLSLSDPVDAPELSQDEMNAVIGESHAWGRKVAAHAHGDKAAKMAVAAGVDSIEHGSFIEDDTLRAMKAKNVYLVPTISAIAHVEEKIGTFPPVIAEKGRAAAAHLRQTFRHAVQIGVPIALGTDAGVGAHGSNAREFRYMVENGLTPAQALLAGTANAARLLGTFDRVGTLEAGKLADVVAVPGNPIADITVTERPLFVMKDGVVVRRDAVR
modifications: exemplary polypeptide
B2: 53 (protein)
chain: B1 chain with G171A, P183S
modifications: exemplary polypeptide
B3: 54 (protein)
chain: B1 chain with G171A, V228A
modifications: exemplary polypeptide
B4: 52 (protein)
chain: B1 chain with G171A, P183G
modifications: exemplary polypeptide
B5: 39 (protein)
chain: MYSLAIRNGIVFDGEKFIGKTNIYVDGDKIVKITNERLDAKEEVNAEGYFVMPGLIDAHLHLTGIRGGSLLMGYLLDDPRTRLLRAANWARELLMAGFTTVRDCGEPNSIILRNAINEGIIPGPRIIAAGSPITQTFGHAELSHSLPLEWSIQLGFGEICDGVDECIKAARKVLRSGADFIKIMATGGVLSERDRPEWPQLTPEEMSAIVREAEKVGTYVAAHAHGDKGARIAVEAGVRTIEHGSLITEETVKLMAEKGVSLTPTLSAQELIYKYGKQMGIDPWGLEKIGQVREGVINSIKLARKYGVMILAGTDLGFKTGLDIDMGKNWVEVKLLVELGGLSSEEALRAATGNASKMLRLNTGIIREGYLADIVLINGNPLENINDIARVSTVIKGGKVTVENGKLI
modifications: exemplary polypeptide
B6: 45 (protein)
chain: B5 chain with A268I, Y275F
modifications: exemplary polypeptide
B7: 41 (protein)
chain: B5 chain with A268I, Y275V
modifications: exemplary polypeptide
B8: 37 (protein)
chain: B5 chain with E106G, A268I
modifications: exemplary polypeptide
B9: 35 (protein)
chain: B5 chain with I65G, A268I
modifications: exemplary polypeptide
B10: 42 (protein)
chain: B5 chain with A268I, F318V
modifications: exemplary polypeptide
B11: 44 (protein)
chain: B5 chain with A268I, I272V
modifications: exemplary polypeptide
B12: 38 (protein)
chain: B5 chain with E106S, A268I
modifications: exemplary polypeptide
B13: 36 (protein)
chain: B5 chain with I65A, A268I
modifications: exemplary polypeptide
B14: 47 (protein)
chain: B5 chain with I65A, E106G, P132A, Q269I, I272V, Y275V, F318V
modifications: exemplary polypeptide
B15: 43 (protein)
chain: B5 chain with P132A, A268I
modifications: exemplary polypeptide
B16: 46 (protein)
chain: B5 chain with A268I, Y275H
modifications: exemplary polypeptide
B17: 40 (protein)
chain: B5 chain with A268I, Q269I
modifications: exemplary polypeptide

Test: Thermostability assay: residual OTA detoxification activity after 10 min incubation at 45-99° C. (T50)
Assay type: physicochemical
Conditions: 0.1 mg/mL protein in 20 mM Tris-HCl pH 7.5, residual OTA detoxification activity relative to 4° C. reference aliquot
Summary of the method: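 T50 marks the temperature range at which half the starting OTA-detoxifying activity is lost, versus an unheated 4 °C reference. Samples were 0.1 mg/mL purified protein in 20 mM Tris-HCl pH 7.5, exposed for 10 min to 45, 55, 65, 75, 80, 85, 90, 95 or 99 °C.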

Molecule	T50 (temperature at which 50% of the initial activity was maintained)
B1	68-70 °C
B2	<63.2 °C
B3	<63.2 °C
B4	<63.2 °C
B5	>99 °C
B6	>99 °C
B7	99 °C
B8	>99 °C
B9	99 °C
B10	>99 °C
B11	>99 °C
B12	>99 °C
B13	99 °C
B14	>99 °C
B15	>99 °C
B16	>99 °C
B17	>99 °C

Test: OTA detoxification activity assay (specific activity, fluorescence reduction ex/em 390/450 nm)
Assay type: biochemical
Conditions: pH 6.0; SEQ ID NO: 1 = 100%
Summary of the method: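 Recombinant enzyme preparation with 200 ng/mL OTA in 100 mM sodium phosphate, at pH 6.0 and pH 7.5, 37° C. Degradation followed as the fall in fluorescence at ex/em 390/450 nm. Specific activity taken from the initial linear slope; one unit degrades 1 μmol OTA per min at a starting OTA of […].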

Molecule	Specific OTA detoxification activities in % compared to the enzyme of SEQ ID NO: 1, pH 6.0
B1	46%
B2	64%
B3	33%
B4	16%

Same assay, conditions: pH 6.0; SEQ ID NO: 2 = 100%

Molecule	Specific OTA detoxification activities in % compared to the enzyme of SEQ ID NO: 2, pH 6.0
B5	8.00%
B6	168.00%
B7	272.00%
B8	42.00%
B9	56.00%
B10	131.00%
B11	84.00%
B12	11.00%
B13	117.00%
B14	85.00%
B15	46.00%
B16	82.00%
B17	15.00%

Same assay, conditions: pH 7.5; SEQ ID NO: 1 = 100%

Molecule	Specific OTA detoxification activities in % compared to the enzyme of SEQ ID NO: 1, pH 7.5
B1	140%
B2	100%
B3	40%
B4	44%

Same assay, conditions: pH 7.5; SEQ ID NO: 2 = 100%

Molecule	Specific OTA detoxification activities in % compared to the enzyme of SEQ ID NO: 2, pH 7.5
B5	15.00%
B6	138.00%
B7	1551.00%
B8	187.00%
B9	136.00%
B10	595.00%
B11	84.00%
B12	53.00%
B13	309.00%
B14	267.00%
B15	19.00%
B16	66.00%
B17	61.00%
